The values that follow come from patent US20180170992A1.

Test [1] addresses recombinant human IL13Rα2hFc chimera (R&D Systems) (human) (UniProt Q14627). Kind of test: SPR, Biacore 3000; mAb immobilised, rhIL13Rα2 in the flow; 1:1 model. A general note: In SPR one partner is held on a chip, and binding of the other changes the refractive index at the surface.
The target of test [2] is Pngase F-treated rhIL13Rα2hFc (human) (UniProt Q14627). Kind of test: plate-bound ELISA on Pngase F-treated rhIL13Rα2hFc. On the technique in general: In an ELISA, binding on a coated surface is turned into a signal by an enzyme label.
Test [3] addresses IL13Rα2 expressed on the surface of human glioma cells (A172, N10, U251, U87, U118, U373, GBM12, GBM43) and in GBM tissue (human) (UniProt Q14627). Kind of test: flow cytometry on N10 glioma cells pre-incubated with 10x excess rhIL13 [left table]. In general terms: A flow cytometer gives signals particle by particle.
Test [4] shares this target. Kind of test: flow cytometry on N10 glioma cells, isotype control [left table].

In the case of “monoclonal antibody to IL13Rα2 (clone B-D13), Santa Cruz Biotechnology”, in test [1], the Kd was determined as 0.0461 µM, the off-rate (koff) came out at 0.00499 s⁻¹ and the on-rate constant (kon) was determined as 108000 M⁻¹ s⁻¹.

On to “mAb to IL13Rα2 (clone 83807), R&D Systems (antibody)”, for which, in test [1], the Kd came out at 0.104 µM, the off-rate (koff) was determined as 0.00231 s⁻¹ and the kon was found to be 22300 M⁻¹ s⁻¹. In test [2], the percent decrease of binding against untreated protein stood at 80%.

In the case of control mouse IgG (antibody), the % positive cells in test [3] came out at 0.9%; in test [4], 1.9%.

One may read the Kd as the constant that tells how readily two partners part at equilibrium. The koff is the first-order rate constant of dissociation. What is called kon is the second-order rate constant of association.
